Results published in the DeepSol protein solubility set.

Test: soluble on expression in E. coli; label from the status in PepcDB or PDB records

| Sequence | soluble on expression in E. coli |
| --- | --- |
| MPTWEELYKNAIEKAIKSVPKVKGVLLGYNTNIDAIKYLDSKDLEERIIKAGKEEVIKYSEELPDKINTVSQLLGSILWSIRRGKAAELFVESCPVRFYMKRWGWNELRMGGQAGIMANLLGGVYGVPVIVHVPQLSRLQANLFLDGPIYVPTLENGEVKLIHPKEFSGDEENCIHYIYEFPRGFRVFEFEAPRENRFIGSADDYNTTLFIREEFRESFSEVIKNVQLAILSGLQALTKENYKEPFEIVKSNLEVLNEREIPVHLEFAFTPDEKVREEILNVLGMFYSVGLNEVELASIMEILGEKKLAKELLAHDPVDPIAVTEAMLKLAKKTGVKRIHFHTYGYYLALTEYKGEHVRDALLFAALAAAAKAMKGNITSLEEIREATSVPVNEKATQVEEKLRAEYGIKEGIGEVEGYQIAFIPTKIVAKPKSTVGIGDTISSSAFIGEFSFTL | soluble |
| MGSDKIHHHHHHMVDEILKLKKEKGYIILAHNYQIPELQDIADFVGDSLQLARKAMELSEKKILFLGVDFMAELVKILNPDKKVIVPDRSATCPMANRLTPEIIREYREKFPDAPVVLYVNSTSECKTLADVICTSANAVEVVKKLDSSVVIFGPDRNLGEYVAEKTGKKVITIPENGHCPVHQFNAESIDAVRKKYPDAKVIVHPECPKPVRDKADYVGSTGQMEKIPEKDPSRIFVIGTEIGMIHKLKKKFPDREFVPLEMAVCVNMKKNTLENTLHALQTESFEVILPKEVIEKAKKPILRMFELMG | not soluble |
| MWYRALFPGATWRIPAKEGKSIYLTFDDGPIPEITPWVLDTLDELGVKATFFCVADNVRRYPDLFAEIQRRGHQVGNHTFHHLQGLKVRTRTYLKDVEEADRLINSRFFRPPHGHLRFMQTLLLSNHYDIIMWDVITRDYNARLSPDTVFGSVVRYARNGSIITFHDSLKAAPNMQQAMPRAVRWLLDEGYTFKCLGDPAD | not soluble |
| MVRTITVASGKGGTGKTTITANLGVALAQLGHDVTIVDADITMANLELILGMEGLPVTLQNVLAGEARIDEAIYVGPGGVKVVPAGVSLEGLRKANPEKLEDVLTQIMESTDILLLDAPAGLERSAVIAIAAAQELLLVVNPEISSITDGLKTKIVAERLGTKVLGVVVNRITTLGIEMAKNEIEAILEAKVIGLIPEDPEVRRAAAYGKPVVLRSPNSPAARAIVELANYIAGGAKKKVPAEVKEKKKEGALAKMLRIFRRR | soluble |
| MAEIDYKKVTGMIHSTESFGSVDGPGIRFIIFMQGCKMRCQYCHNPDTWEMETNNSKERTVEDVLKEALRYKHFWGKDGGITVSGGEAMLQIDFITALFIEAKKLGIHTTLDTCGFAYRATPEYHAILEKLLDVTDLVLLDLKEIDSEQHKIVTRQSNKNILQFARYLSDRGTPVWIRHVLVPGLTDIDDHLKRLGEFVQTLDNVDKFEVLPYHTMGEFKWRELGIPYPLAGVKPPTPERVKNAKDIMKTESYTEYLKRIQN | soluble |
| MSKKVAILVDGDFFIRCYKSHLKKQPEDLNPKKLAHHIHTYCLKHINKKNDEELYRIFFYDCKPLKKKAHYPYTQKALDLSKSPTYREREELHEHLISKPCLALRLGYLDEKNARWVIRDQEKEKKLFNRRISIEEFQNDDFIYHAKQKGVDIKIGLDIATLALKKLVQKIVLISGDSDFVPASKLARVEGIIFTLDPMGNHIREDLKEHIDYLTTRLPQFKQQ | soluble |
| MHHHHHHSSGVDLGTENLYFQSMGKVKATPMTPEQAMKQYMQKLTAFEHHEIFSYPEIYFLGLNAKKRQGMTGGPNNGGYDDDQGSYVQVPHDHVAYRYEVLKVIGKGSFGQVVKAYDHKVHQHVALKMVRNEKRFHRQAAEEIRILEHLRKQDKDNTMNVIHMLENFTFRNHICMTFELLSMNLYELIKKNKFQGFSLPLVRKFAHSILQCLDALHKNRIIHCDLKPENILLKQQGRSGIKVIDFGSSCYEHQRVYTYIQSRFYRAPEVILGARYGMPIDMWSLGCILAELLTGYPLLPGEDEGDQLACMIELLGMPSQKLLDASKRAKNFVSSKGYPRYCTVTTLSDGSVVLNGGRSRRGKLRGPPESREWGNALKGCDDPLFLDFLKQCLEWDPAVRMTPGQALRHPWLRRRLPKPPTGEKTSVKR | soluble |
| MGHHHHHHSHMANSAGSMANSAGSPELLTKHNRRVAQKTVESLKRSLMSTNLHPSKQVKTSSQYTIFSTPQIATTTPQTQVSPGMPLMFPGGSPNFVQDIKMENGFMDVDSQSSQCPSVERNFASPRSNCSTVDSIPPMQMGQNQTHLYLPDATNFTFNGNFASPSSNCSTVDSIPPFQIGQRNNHMYLPENSNFPVNGCSPTHFSGGSMTPINNNNNVLINNNNNDFLSQKMSAISIPPQGNFGIKQVYQQTQQFLPQLQPESIPYLAQSHPEQSQYQQQQQPQEQQPPADEPTQSFSDLISSSIGMAPIDTSELIQDIEAELNSLGIQPFK | not soluble |
| MDGDGSSFEQFIMPPSALDRLASLHIEYPMLFQLSNVSVEKTSHCGVLEFTADEGLVYLPYWMMQNMSLEEGDVMQVKNISLVKGTYIKLQPHTQDFLDISNPKAILETTLRSYSCLTTGDTIMVPYNNKQYYINVVEAKPSSAVSIIETDCEVDFAPPLDYKEPEKPQKLTPSNKRPLQVKEEEEPASKVPKFTPFTGSGKRLDGKAQTQTEPEDTKQQEKPTENGKDDEKLSVTTPRQISGKLVFGSNSKSAAKETAKVDDPKNIVQESSTKSDEAKFKVFTGKKYSLNG | soluble |
| MLETYDWNNKLTYLKNTRDLYYNDDYVSFLVNTVWKITKPVHIVDYGCGYGYLGLVLMPLLPEGSKYTGIDSGETLLAEARELFRLLPYDSEFLEGDATEIELNDKYDIAICHAFLLHMTTPETMLQKMIHSVKKGGKIICFEPHWISNMASYLLDGEKQSEFIQLGVLQKLFESDTQRNGKDGNIGMKIPIYLSELGVKNIECRVSDKVNFLDSNMHHNDKNDLYQSLKEEGIAGDPGDKQQFVERLIARGLTYDNALAQYEAELRFFKALHLHSSLVYAPNMKITFGEIECMAGDPLEHHHHHH | soluble |
| MKRIGVLTSGGDSPGMNAAIRAVVRKAIFHDIEVYGIYHGYAGLISGHIEKLELGSVGDIIHRGGTKLYTARCPEFKDPEVRLKGIEQLKKHGIEGLVVIGGDGSYQGAKKLTEQGFPCVGVPGTIDNDIPGTDFTIGFDTALNTVIDAIDKIRDTATSHERTYVIEVMGRHAGDIALWAGLADGAETILIPEEEYDMEDVIARLKRGSERGKKHSIIVVAEGVGSAIDIGKHIEEATNFDTRVTVLGHVQRGGSPSAQDRVLASRLGARAVELLIAGKGGRCVGIQDNKLVDHDIIEALAQKHTIDKDMYQLSKELSI | not soluble |
| MRGSHHHHHHGSENLYFQSGAMEIREQLNLGGIVNAQNAQLSNCSDGAAQLESCGTAPDLKGITGWLNTPGNKPIDLKSLRGKVVLIDFWAYSCINCQRAIPHVVGWYQAYKDSGLAVIGVHTPEYAFEKVPGNVAKGAANLGISYPIALDNNYATWTNYRNRYWPAEYLIDATGTVRHIKFGEGDYNVTETLVRQLLNDAKPGVKLPQPSSTTTPDLTPRAALTPETYFGVGKVVNYGGGGAYDEGSAVFDYPPSLAANSFALRGRWALDYQGATSDGNDAAIKLNYHAKDVYIVVGGTGTLTVVRDGKPATLPISGPPTTHQVVAGYRLASETLEVRPSKGLQVFSFTYG | soluble |
| MKRYTPDFPEMMRLCEMNFSQLRRLLPRNDAPGETVSYQVANAQYRLTIVESTRYTTLVTIEQTAPAISYWSLPSMTVRLYHDAMVAEVCSSQQIFRFKARYDYPNKKLHQRDEKHQINQFLADWLRYCLAHGAMAIPVYLEHHHHHH | soluble |
| MGSDKIHHHHHHMNYEGKTKIVKVTGDYALLEFKDDITAGDGLKHDVLTGKGSICAETTAILMKYLSEKGIKTHLVEYIPPRTLKVIPLKMFPLEVVVRLKKAGSFVRRYGGAEGEDLPVPLVEFFIKDDERHDPMVCVDHLEILGIATKKQAEKMKEAAVKITLALKEFFERANFELWDIKYEFGLDKDGNVVLGDEISPDTFRLRKKGEIFDKDVYRRDLGDPLKKYREVLELCRSLNSQ | not soluble |
| MSVERSLEAWEEVQRHGQDLADRLAQGFNGLIQINPPSFPSKLFDLEFSSQHFGIRDSRFSIHQPINGVSAILDIGNKIGQAGVDFGSGLNVMVQQFFRRLPVPFRHDENVFVSTERDTVTRSHRAYVDTKENSAFSKTDTASSGTVYEEKVTEFDLRTIGLHRRAKGTVELSSSYETRTSSMEHSLAARGDLWRVEASTSNSPVRDDSSSLFLLQLGPLLFLRDSTLLLPVHLSKQHLLWYGYDRKKGMHSLCPALWSKHRRWLMMSMLCLNPLDCSFVDLQFPNGQLTYVSGEGLTTSVFVPLCGGLLQAQGQYPGDMRFSFSCKSKQGTRITPMINWPDKSLALGVSQALAWRRSGVMLKPAIQLSVCSTFGGSNPGIKTEVIQSLNDNINMICGCAFTAHPSTFASVSFGRSKWNGNIGRTGIVVRADTPLPNVARPSFSIQINNAFEF | soluble |
| MSLDLQEKVRVAAEAVKHADAIVMTAGAGMGVDSGLPDFRGDTGFWKAYPPYQKLGITFVGAANPDHFERDPSFGWGFYGHRTNLYRATVPHAGFDILREWVQRYGLDYFVVTSNVDGQFQKAGFADDRILEVHGSIHHLQCTTPCTMAIWENRETIPVDEATMRAGHVPRCIHCGAVARPNILMFGDYGWVSDRSARQQRNFDEFLADTRGGRLVVVEMGAGTAIPTIRYLTEELGSRSEALAVRINPREPQIRAPHLSLPCGAREGVAAINAVLAEESEGHHHHHH | soluble |
| MAGFPGKEAGPPGGWRKCQEDESPENERHENFYAEIDDFAPSVLTPTGSDSGAGEEDDDGLYQVPTHWPPLMAPTGLSGERVPCRTQAAVTSNTGNSPGSRHTSCPFTLPRGAQPPAPAHQKPTAPTPKPRSRECGPSKTPDPFSWFRKTSCTEGGADSTSRSFMYQKGFEEGLAGLGLDDKSDCESEDESNFRRPSSHSALKQKNGGKGKPSGLFEHLAAHGREFSKLSKHAAQLKRLSGSVMNVLNLDDAQDTRQAKAQRKESMRVPIVTHLTNHVPVIKPACSLFLEGAPGVGKTTMLNHLKAVFGDLTIVVPEPMRYWTHVYENAIKAMHKNVTRARHGREDTSAEVLACQMKFTTPFRVLASRKRSLLVTESGARSVAPLDCWILHDRHLLSASVVFPLMLLRSQLLSYSDFIQVLATFTADPGDTIVWMKLNVEENMRRLKKRGRKHESGLDAGYLKSVNDAYHAVYCAWLLTQYFAPEDIVKVCAGLTTITTVCHQSHTPIIRSGVAEKLYKNSIFSVLKEVIQPFRADAVLLEVCLAFTRTLAYLQFVLVDLSEFQDDLPGCWTEIYMQALKNPAIRSQFFDWAGLSKVISDFERGNRD | not soluble |
| MLAPKAFLDALSGHASRLFNGETPVPRSEFETQFKALLQSGFSKLDLVSREEFDSQMAVLARTRARLEALEAKMAELEGKVGGAEKAGSE | not soluble |
| MLKREMNIADYDAELWQAMEQEKVRQEEHIELIASENYTSPRVMQAQGSQLTNKYAEGYPGKRYYGGCEYVDVVEQLAIDRAKELFGADYANVQPHSGSQANFAVYTALLQPGDTVLGMNLAQGGHLTHGSPVNFSGKLYNIVPYGIDESGKIDYDEMAKLAKEHKPKMIIGGFSAYSGVVDWAKMREIADSIGAYLFVDMAHVAGLIAAGVYPNPVPHAHVVTTTTHKTLAGPRGGLILAKGGDEELYKKLNSAVFPSAQGGPLMHVIAGKAVALKEAMEPEFKVYQQQVAKNAKAMVEVFLNRGYKVVSGGTENHLFLLDLVDKNLTGKEADAALGRANITVNKNSVPNDPKSPFVTSGIRIGSPAVTRRGFKEAEVKELAGWMCDVLDNINDEATIERVKAKVLDICARFPVYA | not soluble |
| MRFTKVVGFLSVLGLAAVFPLTAQAEKAGTAGAGEWDKLGTYTYTYSSPTVYSTGGDFRVCLSGSTPFSVSLHLYEDDPGDNPDDYVGANYFSPGECHTFGSIGKFVDGSNNKAEFFVTDYSGKSKTVTFYDLEHHHHHH | not soluble |
